Laboratory results published in the RNAGym collection of RNA variant scans (doi:10.7554/elife.80360).

B1: Hairpin Ribozyme (parent)
chain: GUCCUCUUUCACGUGCGCGUGAAAGAGAGAAGUGAACCAGAGAAACACACGUUGUGGUAUAUUACCUGGUA

Variants of: B1
Experiment: self-cleavage, relative activity (ratio to wild type); higher = more cleavage; co-transcriptional

Variant	self-cleavage
GUCCGCUUUCACGUGCGCGUGAAAGAGAGAAGUGAACCAAAGAAACACACGUUGUGGUAUAUUACCUGGUA [U5G G40A]	0.0651
GUCCGCUUUCACGUGCGCGUGAAAGAGAGAAGGGAACCAGAGAAACACACGUUGUGGUAUAUUACCUGGUA [U5G U33G]	0.0612
GUCCGCUUUCACGUGCGCGUGAAAGAGAGAAGUGAACCAGAGAAACACACGUUGUGGUAUAUUACCUCGUA [U5G G68C]	0
GUCCGCUUUCACGUGCGCGUGAAAGAGAGAAGUGAACCAGAGAAACACACGUUGUGGUAUAUUACCUUGUA [U5G G68U]	0.156
GUCCGCUUUCACGUGCGCGUGAAAGAGAGAAGUGAACCAGAGAAACACACGUUGUGCUAUAUUACCUGGUA [U5G G57C]	0.0591
GUCCGCUUUCACGUGCGCGCGAAAGAGAGAAGUGAACCAGAGAAACACACGUUGUGGUAUAUUACCUGGUA [U5G U20C]	0.337
GUCCUAUUUCGCGUGCGCGUGAAAGAGAGAAGUGAACCAGAGAAACACACGUUGUGGUAUAUUACCUGGUA [C6A A11G]	0.635
GUCCGCUUUCACGUGCGCGUGAAAGAGAGAAGUGAACCAGAGAAACACACGUUGUGGUAUAUCACCUGGUA [U5G U63C]	0.116
GUCCGCUUUCACGUGCGCGUGAAAGAGAGAAGUGAACCAGAGAAACACACGUUGUGGCAUAUUACCUGGUA [U5G U58C]	0.25
GUCCGCUUUCACGUGCGCGUGAAAGAGAGAAGUGAACCAGAGAAACACACGUUGUGGAAUAUUACCUGGUA [U5G U58A]	0.272
GUCCGCUUUCACGUGCGCGUGAAAGAGAGAAGUGAACCAGAGAAACACACGUUGUGGUAUAUUACCUGCUA [U5G G69C]	0.104
GUCCGCUUUCACGUGCGCGUGAAAGAGAGAAGUGAACCAGAGAAACACACGUUGUGGUAUAUUACCUGUUA [U5G G69U]	0.247
GUCCGCUUUCACGUGCGCGUGAAAGAGAGAAGUGAACCAGAGAAACACACGUUGUGGUAUAUUACCUGAUA [U5G G69A]	0.0952
GUCCGCAUUCACGUGCGCGUGAAAGAGAGAAGUGAACCAGAGAAACACACGUUGUGGUAUAUUACCUGGUA [U5G U7A]	0.2
GUCCUAUUUCACGUGCGCGUGAAAGAGCGAAGUGAACCAGAGAAACACACGUUGUGGUAUAUUACCUGGUA [C6A A28C]	0.233
GUCCGCUUUCACGAGCGCGUGAAAGAGAGAAGUGAACCAGAGAAACACACGUUGUGGUAUAUUACCUGGUA [U5G U14A]	0.204
GUCCGCUUUCACGGGCGCGUGAAAGAGAGAAGUGAACCAGAGAAACACACGUUGUGGUAUAUUACCUGGUA [U5G U14G]	0.152
GUCCGCUUUCACGCGCGCGUGAAAGAGAGAAGUGAACCAGAGAAACACACGUUGUGGUAUAUUACCUGGUA [U5G U14C]	0.383
GUCCGCUUUCACGUGCGCGUGAAAGAGAGAAGUGAACCAGAGAAACACACGUAGUGGUAUAUUACCUGGUA [U5G U53A]	0.455

Variant	self-cleavage
GUCCGCUUUCACGUGCGCGUGAAAGAGAGAAGUGAACCAGAGAAACACACGUGGUGGUAUAUUACCUGGUA [U5G U53G]	0.179
GUCCUAUUUCACGUGCGCGUGAACGAGAGAAGUGAACCAGAGAAACACACGUUGUGGUAUAUUACCUGGUA [C6A A24C]	0.445
GUCCUAUUUCACGUGCGCGUGAAAGAGAGAAGUGAACCAGAGCAACACACGUUGUGGUAUAUUACCUGGUA [C6A A43C]	0.197
GUCCGCUUUCACGUGCGCGUGAAAGAGAGAAGUGAACCAGAGAAACACACGAUGUGGUAUAUUACCUGGUA [U5G U52A]	0.444
GUCCGCUUUCACGUGCGCGUGAAAGAGAGAAGUGAACCAGAGAAACACACGUUGUGGUAUAUUACCGGGUA [U5G U67G]	0.164
GUCCGCUUUCACGUGCGCGUGAAAGAGAGAAAUGAACCAGAGAAACACACGUUGUGGUAUAUUACCUGGUA [U5G G32A]	0.0653
GUCCGCUUUCACGUGCGCGUGAAAGAGAGAAUUGAACCAGAGAAACACACGUUGUGGUAUAUUACCUGGUA [U5G G32U]	0.132
GUCCGCUUUCACGUGCGCGUGAAAGAGAGAAGUGAACCAGAGAAACACACGUUGAGGUAUAUUACCUGGUA [U5G U55A]	0.139
GUCCGCUUUCACGUGCGCGUGAAAGAGAGAAGUGAACCAGAGAAACACACGUUGCGGUAUAUUACCUGGUA [U5G U55C]	0.121
GUCCUAUUUCACGUGCGCGUGACAGAGAGAAGUGAACCAGAGAAACACACGUUGUGGUAUAUUACCUGGUA [C6A A23C]	0.52
GUCCUAUUUCACGUGCGCGUGAUAGAGAGAAGUGAACCAGAGAAACACACGUUGUGGUAUAUUACCUGGUA [C6A A23U]	0.503
GUCCUAUUUCACGUGCGCGUGAAAGAGAGAAGUGAACCAGUGAAACACACGUUGUGGUAUAUUACCUGGUA [C6A A41U]	0.919
GUCCUAUUUCACGUGCGCGUGAAAGAGAGAAGUGAACCAGCGAAACACACGUUGUGGUAUAUUACCUGGUA [C6A A41C]	0.873
GUCCUAUUUCACGUGCGCGUGAAAGAGAGAAGUGAACCCGAGAAACACACGUUGUGGUAUAUUACCUGGUA [C6A A39C]	0.436
GUCCUAUUUCACGUGCGCGUGUAAGAGAGAAGUGAACCAGAGAAACACACGUUGUGGUAUAUUACCUGGUA [C6A A22U]	0.352
GUCCUAUUUCACGUGCGCGUGCAAGAGAGAAGUGAACCAGAGAAACACACGUUGUGGUAUAUUACCUGGUA [C6A A22C]	0.541
GUCCGCUUCCACGUGCGCGUGAAAGAGAGAAGUGAACCAGAGAAACACACGUUGUGGUAUAUUACCUGGUA [U5G U9C]	0.197
GUCCUAUUUCACGUGCGCGUGAAAGAGAGUAGUGAACCAGAGAAACACACGUUGUGGUAUAUUACCUGGUA [C6A A30U]	0.0998
GUCCGCUUUCACGUGCGCGUGAAAGAGAGAAGUGAACCAGAGAAACACACGUUGUGGUAUAGUACCUGGUA [U5G U62G]	0.145
